Data reported in paper doi:10.1101/582635.

Experiments:
[1] = target: human 40S ribosomal subunit lacking RACK1 (ΔRACK1 40S) (human (endogenous in HAP1)) (UniProt P23396); experiment: native gel or EMSA
[2] = target: human 40S ribosomal subunit lacking RACK1 (ΔRACK1 40S) (human (endogenous in HAP1)) (UniProt P23396); experiment: FRET or BRET

With “RACK1-ybbR expressed in ΔRACK1 HAP1 cells (native, ribosome-bound) (from UniProt P63244 1-317) (natural protein)” the t1/2 (half-life on the 40S subunit) [1] was 15 h.

B1: recombinant S. cerevisiae Asc1p-ybbR (RACK1 ortholog) (natural protein)
chain: MASNEVLVLRGTLEGHNGWVTSLATSAGQPNLLLSASRDKTLISWKLTGDDQKFGVPVRSFKGHSHIVQDCTLTADGAYALSASWDKTLRLWDVATGETYQRFVGHKSDVMSVDIDKKASMIISGSRDKTIKVWTIKGQCLATLLGHNDWVSQVRVVPNEKADDDSVTIISAGNDKMVKAWNLNQFQIEADFIGHNSNINTLTASPDGTLIASAGKDGEIMLWNLAAKKAMYTLSAQDEVFSLAFSPNRYWLAAATATGIKVFSLDPQYLVDDLRPEFAGYSKAAEPHAVSLAWSADGQTLFAGYTDNVIRVWQVMTAN
In the case of B1, the kobs (fast phase, 75 nM) [2] is reported as 0.2 s⁻¹ and the kon (fast phase) [2] is reported as 2e+06 M⁻¹ s⁻¹.
